Three molecules from publication PMC10083196 (Cell Reports, 2023) can be followed below.

Assay [1] concerns the target T1, SARS-CoV-2 spike receptor-binding domain (soluble RBD, residues 319–591) (SARS-CoV-2, UniProt P0DTC2). Briefly: SPR. (Surface plasmon resonance follows binding to a sensor surface in real time, without labels.)
The target of assay [2] is T1, SARS-CoV-2 spike receptor-binding …. Briefly: crystal structure.

B1: 1H2 IgG (antibody, V domains shown)
VH: QVQLQQSGGGLVQPGRSLRLSCAASGFTFDDYAMHWVRQAPGKGLEWVSGITWNSGTIGYADSVKGRFTISRDNAKNSLYLQMRSLRAEDTALYYCAKDSGRKLLWGREDYYMGVWGKGTTVTV
VL: SYELTQPPSVSVAPGKTARITCGGSNIGSKSVHWYQQKPGQAPVLVIYYDSDRPSGIPERFSGSNSGNTATLTISRVEAGDEADYYCQVWDSSSDHVVFGG
Regarding B1, the binding result in assay [1] is given as “binds”.

B2: 2A10 IgG (antibody, V domains shown)
VH: QVQLVESGGGLIQPGGSLRLSCAASEFIVSSNYMSWVRQAPGKGLEWVSLLYSGGTTYYADSVKGRFTISRDNSKNTLFLQMNSLRAEDTAMYYCARDRGPWLHDYWGQGTLVTVSS
VL: DIVMTQSPSSLSASVGDRVTITCQASQDINKYCNWYQQKPGKAPKLLIYDASNLETGVPSRFSGSGSGTDFTFTINSLQPEDIATYYCQQYDNLPPTFGGGTKVEIK
Turning to B2, the binding result in assay [1] is “binds”.

B3: 2A10 Fab (Fab, V domains shown)
VH: B2 VH
VL: B2 VL
Turning to B3, the binding result in assay [2] is recorded as “binds”.
